Measured values published in patent publication US20220002423A1 (GENERAL HOSPITAL, published 2022).

How the values were obtained:
[1] = target: T1, Amino acid residues 26-45 of human TNFR2 (human); test: ELISA, coated linear peptides 1 µg/well, antibody 0.1 µg/well
T1 sequence (peptide): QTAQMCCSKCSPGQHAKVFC

[2] = target: T2, Amino acid residues 98-117 of human TNFR2 (human); test: as above
T2 sequence (peptide): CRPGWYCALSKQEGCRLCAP

[3] = target: T3, Amino acid residues 106-125 of human TNFR2 (human); test: as above
T3 sequence (peptide): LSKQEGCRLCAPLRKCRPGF

[4] = target: T4, Amino acid residues 108-127 of human TNFR2 (human); test: as above
T4 sequence (peptide): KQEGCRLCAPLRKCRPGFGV

[5] = target: T5, Amino acid residues 154-174 of human TNFR2 (human); test: ELISA, coated linear peptides 1 µg/well
T5 peptide: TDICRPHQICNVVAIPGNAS
Method: ELISA was also used to determine linear epitopes present on the extracellular surface of TNFR2. Linear peptides corresponding to various regions within the TNFR2 primary sequence were purchased from GenScript (Piscataway, N.J.), diluted in coating buffer and placed on Immulon 4HBX Flat Bottom Microtiter Plates (Thermo Scientific) at a concentration of 1 μg/well. Primary TNFR2 agonistic antibodies (0.1 μg/well) were incubated with substrates. Secondary antibodies against rodent IgG were used to detect the primary antibodies. Absorbance was measured using the SPECTRAMAX® 190 Absorbance Plate Reader and analyzed with SoftMax Pro 6.3 (Molecular Devices).

[6] = target: T6, Amino acid residues 66-85 of human TNFR2 (human); test: ELISA, antibody with TNFα added
T6 peptide: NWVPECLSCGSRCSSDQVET

[7] = target: T7, Amino acid residues 74-93 of human TNFR2 (human); test: ELISA, antibody with TNFα added
T7 peptide: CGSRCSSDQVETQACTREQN

[8] = target: T1, Amino acid residues 26-45 of human TNFR2 (human); test: ELISA on TNFR2 peptide fragment; categorical score, 0 lowest to 4 highest affinity
[9] = target: T2, Amino acid residues 98-117 of human TNFR2 (human); test: as above
[10] = target: T3, Amino acid residues 106-125 of human TNFR2 (human); test: as above
[11] = target: T1, Amino acid residues 26-45 of human TNFR2 (human); test: ELISA, antibody alone
[12] = target: T8, Amino acid residues 34-53 of human TNFR2 (human); test: ELISA, antibody alone
T8 sequence (peptide): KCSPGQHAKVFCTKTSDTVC

[13] = target: T2, Amino acid residues 98-117 of human TNFR2 (human); test: ELISA, antibody alone
[14] = target: T3, Amino acid residues 106-125 of human TNFR2 (human); test: ELISA, antibody alone
[15] = target: Full-length human TNFR2 (human) (UniProt P20333); test: ELISA; categorical score, 0 lowest to 4 highest affinity
[16] = target: T9, Amino acid residues 42-61 of human TNFR2 (human); test: ELISA, antibody alone
T9 peptide: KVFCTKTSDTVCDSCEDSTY

[17] = target: T10, Amino acid residues 58-77 of human TNFR2 (human); test: ELISA, antibody alone
T10 peptide: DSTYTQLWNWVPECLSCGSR

[18] = target: T6, Amino acid residues 66-85 of human TNFR2; test: ELISA, antibody alone
[19] = target: T11, Amino acid residues 50-69 of human TNFR2 (human); test: ELISA, antibody alone
T11 peptide: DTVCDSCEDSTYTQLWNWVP

[20] = target: T12, Amino acid residues 9-28 of human TNFR2 (human); test: ELISA, antibody alone
T12 peptide: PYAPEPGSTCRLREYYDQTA

[21] = target: T13, Amino acid residues 17-36 of human TNFR2 (human); test: ELISA, antibody alone
T13 peptide: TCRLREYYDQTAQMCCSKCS

[22] = target: T14, Amino acid residues 90-109 of human TNFR2 (human); test: ELISA, antibody alone
T14 peptide: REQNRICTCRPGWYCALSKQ

[23] = target: T7, Amino acid residues 74-93 of human TNFR2; test: ELISA, antibody alone
[24] = target: T15, TNFR2, hTNFR2 (23-207), 20kD (human, UniProt P20333); test: ELISA, antibody alone
T15 construct: fragment 23-207, 20kD (so in the source)
T15 sequence (receptor fragment, looked up): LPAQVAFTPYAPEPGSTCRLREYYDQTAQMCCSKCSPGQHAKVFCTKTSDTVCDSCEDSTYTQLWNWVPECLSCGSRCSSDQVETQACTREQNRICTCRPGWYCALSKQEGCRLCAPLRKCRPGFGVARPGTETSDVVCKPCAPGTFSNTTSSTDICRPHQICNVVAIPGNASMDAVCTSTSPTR

[25] = target: T16, Amino acid residues 170-189 of human TNFR2 (human); test: ELISA, antibody alone
T16 peptide: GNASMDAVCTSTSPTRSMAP

[26] = target: T17, Amino acid residues 82-101 of human TNFR2 (human); test: ELISA, antibody alone
T17 peptide: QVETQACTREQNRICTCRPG

B1: agonistic TNFR2 antibody TNFRAG1 (antibody, V domains shown)
VH: EVQLQQFGAELVKPGASVKISCKASGYTFTDYNIDWVKQSHGKSLEWIGDINPNYDSTSYSQKFRGKATLTVDKSSSTAYMELRSLTSEDTAVYYCARGNSWYFDVWGAGTTVTVSS
VL: QIVLTQSPALMSASPGEKVTMTCSASSSVRYMYWYQQKPRSSPKPWIYLTSNLASGVPARFSGSGSGTSYSLTISSMEAEDAATYYCQQWSSNPLTFGAGTKLELK
notes: the primary antibodies were detected with secondary antibodies against rodent IgG; also called monoclonal TNFR2 antibody TNFRAG1; TNFR2 agonist antibody
no binding (tested: 0.1 µg/well): binding result [5]
0.1: Reading [11]
4: Affinity Score [15]
2: Affinity [3] | Affinity [4] | Affinity Score [10] | Reading [13] | Reading [14] | Reading [18] | Reading [22] | Reading [23] | Reading [26]
no binding: binding result [6] | binding result [7] | binding result [16] | binding result [17] | binding result [19] | binding result [20] | binding result [21] | binding result [25]
1.2: Reading [24]
0: Reading [1] | Reading [2] | Reading [3] | Reading [4]
1: Affinity [1] | Affinity [2] | Affinity Score [8] | Affinity Score [9] | Affinity [11] | Affinity [12] | Affinity [13]
